Results from patent publication US20060263802A1 (CRUCELL HOLLAND B V, published 2006).

How the values were obtained:
Test in all cases: PEPSCAN ELISA, looped 15-mer, 10 ug/ml
[1] = molecular target: looped peptide … (rabies virus strain ERA)
[2] = molecular target: looped peptide … (rabies virus strain ERA); remark: listed apart in the source
[3] = molecular target: looped peptide … (rabies virus strain ERA); remark: listed apart in the source
[4] = molecular target: looped peptide … (rabies virus strain ERA); remark: listed apart in the source
[5] = molecular target: looped peptide … (rabies virus strain ERA); remark: listed apart in the source
[6] = molecular target: looped peptide … (rabies virus strain ERA); remark: listed apart in the source
[7] = molecular target: looped peptide … (rabies virus strain ERA); remark: listed apart in the source
[8] = molecular target: looped peptide … (rabies virus strain ERA); remark: listed apart in the source
[9] = molecular target: looped peptide … (rabies virus strain ERA); remark: listed apart in the source
[10] = molecular target: looped peptide … (rabies virus strain ERA); remark: listed apart in the source
[11] = molecular target: looped peptide … (rabies virus strain ERA); remark: listed apart in the source
[12] = molecular target: looped peptide … (rabies virus strain ERA); remark: listed apart in the source
[13] = molecular target: looped peptide … (rabies virus strain ERA); remark: listed apart in the source
[14] = molecular target: looped peptide … (rabies virus strain ERA); remark: listed apart in the source
[15] = molecular target: looped peptide … (rabies virus strain ERA); remark: listed apart in the source
[16] = molecular target: looped peptide … (rabies virus strain ERA); remark: listed apart in the source
[17] = molecular target: looped peptide … (rabies virus strain ERA); remark: listed apart in the source
[18] = molecular target: looped peptide … (rabies virus strain ERA); remark: listed apart in the source
[19] = molecular target: looped peptide … (rabies virus strain ERA); remark: listed apart in the source
[20] = molecular target: looped peptide … (rabies virus strain ERA); remark: listed apart in the source
[21] = molecular target: looped peptide … (rabies virus strain ERA); remark: listed apart in the source
[22] = molecular target: looped peptide … (rabies virus strain ERA); remark: listed apart in the source
[23] = molecular target: looped peptide … (rabies virus strain ERA); remark: listed apart in the source
[24] = molecular target: looped peptide … (rabies virus strain ERA); remark: listed apart in the source
[25] = molecular target: looped peptide … (rabies virus strain ERA); remark: listed apart in the source
[26] = molecular target: looped peptide … (rabies virus strain ERA); remark: listed apart in the source
[27] = molecular target: looped peptide … (rabies virus strain ERA); remark: listed apart in the source
[28] = molecular target: looped peptide … (rabies virus strain ERA); remark: listed apart in the source
[29] = molecular target: looped peptide … (rabies virus strain ERA); remark: listed apart in the source
[30] = molecular target: looped peptide … (rabies virus strain ERA); remark: listed apart in the source
[31] = molecular target: looped peptide … (rabies virus strain ERA); remark: listed apart in the source
[32] = molecular target: looped peptide … (rabies virus strain ERA); remark: listed apart in the source
[33] = molecular target: looped peptide … (rabies virus strain ERA); remark: listed apart in the source
[34] = molecular target: looped peptide … (rabies virus strain ERA); remark: listed apart in the source
[35] = molecular target: looped peptide … (rabies virus strain ERA); remark: listed apart in the source
[36] = molecular target: looped peptide … (rabies virus strain ERA); remark: listed apart in the source
[37] = molecular target: looped peptide … (rabies virus strain ERA); remark: listed apart in the source
[38] = molecular target: looped peptide … (rabies virus strain ERA); remark: listed apart in the source
[39] = molecular target: looped peptide … (rabies virus strain ERA); remark: listed apart in the source
[40] = molecular target: looped peptide … (rabies virus strain ERA); remark: listed apart in the source
[41] = molecular target: looped peptide … (rabies virus strain ERA); remark: listed apart in the source
[42] = molecular target: looped peptide … (rabies virus strain ERA); remark: listed apart in the source
[43] = molecular target: looped peptide … (rabies virus strain ERA); remark: listed apart in the source
[44] = molecular target: looped peptide … (rabies virus strain ERA); remark: listed apart in the source
[45] = molecular target: looped peptide … (rabies virus strain ERA); remark: listed apart in the source
[46] = molecular target: looped peptide … (rabies virus strain ERA); remark: listed apart in the source
[47] = molecular target: looped peptide … (rabies virus strain ERA); remark: listed apart in the source
[48] = molecular target: looped peptide … (rabies virus strain ERA); remark: listed apart in the source
[49] = molecular target: looped peptide … (rabies virus strain ERA); remark: listed apart in the source
[50] = molecular target: looped peptide … (rabies virus strain ERA); remark: listed apart in the source
[51] = molecular target: looped peptide … (rabies virus strain ERA); remark: listed apart in the source
[52] = molecular target: looped peptide … (rabies virus strain ERA); remark: listed apart in the source
[53] = molecular target: looped peptide … (rabies virus strain ERA); remark: listed apart in the source
[54] = molecular target: looped peptide … (rabies virus strain ERA); remark: listed apart in the source
[55] = molecular target: looped peptide … (rabies virus strain ERA); remark: listed apart in the source
[56] = molecular target: looped peptide … (rabies virus strain ERA); remark: listed apart in the source
[57] = molecular target: looped peptide … (rabies virus strain ERA); remark: listed apart in the source
[58] = molecular target: looped peptide … (rabies virus strain ERA); remark: listed apart in the source
[59] = molecular target: looped peptide … (rabies virus strain ERA); remark: listed apart in the source
[60] = molecular target: looped peptide … (rabies virus strain ERA); remark: listed apart in the source
[61] = molecular target: looped peptide … (rabies virus strain ERA); remark: listed apart in the source
[62] = molecular target: looped peptide … (rabies virus strain ERA); remark: listed apart in the source
[63] = molecular target: looped peptide … (rabies virus strain ERA); remark: listed apart in the source
[64] = molecular target: looped peptide … (rabies virus strain ERA); remark: listed apart in the source
[65] = molecular target: looped peptide … (rabies virus strain ERA); remark: listed apart in the source
[66] = molecular target: looped peptide … (rabies virus strain ERA); remark: listed apart in the source
[67] = molecular target: looped peptide … (rabies virus strain ERA); remark: listed apart in the source
[68] = molecular target: looped peptide … (rabies virus strain ERA); remark: listed apart in the source

B1: human monoclonal antibody CRJB (antibody, V domains shown)
VH: QITLKETGPTLVKPTQTLTLTCTFSGFSLSTSGVGVGWIRQPPGKALEWVTLIYWDDDKRYSPSLENRVTIRKDTSKNQVALTMTNMDPLDTGTYYCAHRQHISSFPWFDSWGQGTLVTVSS
VL: SYVLTQPPSVSVAPGKTARINCGGNNIEYRSVHWYQQKSGQAPVAVIYDNSDRPSGIPERFSGSKSGNTATLTISRVEAGDEADYYCQVWDISSDVVFGGGTKLTVLG
OD value [1]: 55 | OD value [2]: 72 | OD value [3]: 76 | OD value [4]: 94 | OD value [5]: 88 | OD value [6]: 104 | OD value [7]: 71 | OD value [8]: 91 | OD value [9]: 90 | OD value [10]: 83 | OD value [11]: 90 | OD value [12]: 82 | OD value [13]: 83 | OD value [14]: 96 | OD value [15]: 60 | OD value [16]: 33 | OD value [17]: 105 | OD value [18]: 79 | OD value [19]: 2 | OD value [20]: 97 | OD value [21]: 27 | OD value [22]: 27 | OD value [23]: 89 | OD value [24]: 82 | OD value [25]: 106 | OD value [26]: 127 | OD value [27]: 78 | OD value [28]: 93 | OD value [29]: 111 | OD value [30]: 123 | OD value [31]: 66 | OD value [32]: 56 | OD value [33]: 111 | OD value [34]: 123 | OD value [35]: 93 | OD value [36]: 72 | OD value [37]: 93 | OD value [38]: 70 | OD value [39]: 79 | OD value [40]: 94 | OD value [41]: 86 | OD value [42]: 68 | OD value [43]: 74 | OD value [44]: 98 | OD value [45]: 34 | OD value [46]: 77 | OD value [47]: 66 | OD value [48]: 58 | OD value [49]: 106 | OD value [50]: 83 | OD value [51]: 62 | OD value [52]: 94 | OD value [53]: 108 | OD value [54]: 80 | OD value [55]: 54 | OD value [56]: 58 | OD value [57]: 106 | OD value [58]: 66 | OD value [59]: 73 | OD value [60]: 75 | OD value [61]: 97 | OD value [62]: 88 | OD value [63]: 96 | OD value [64]: 61 | OD value [65]: 78 | OD value [66]: 73 | OD value [67]: 42 | OD value [68]: 57
